Publication PMC10692916, “Protein arginine N-methyltransferase 2 plays a noncatalytic role in the histone methylation activity of PRMT1” (The Journal of Biological Chemistry, 2023)
One block for each binder: values may come before it.

Experiments:
[1] = biological target: Protein arginine N-methyltransferase 1 (PRMT1) (human) (UniProt Q99873)
[2] = biological target: the molecule itself; assay: native gel or EMSA; mCer-PRMT1 and mCit-PRMT2, 1 uM each, alone or mixed, 1 h at 37 °C in methylation buffer without SAH or H3 peptide; 4-20% native PAGE, fluorescence imaging
[3] = biological target: T1, Protein arginine N-methyltransferase 2 (PRMT2), full-length, wild type (human, UniProt P55345-1 1-433); assay: differential scanning fluorimetry; 5 uM PRMT2, PRMT2ΔSH3 or PRMT2H112Q with 0-500 uM peptide, 7.5x SYPRO Orange, 50 mM Hepes pH 8.0, 10 mM NaCl, 1.0 mM DTT; 30 min at room temperature, heated 25-80 °C; KD from Tm against ligand concentration, single site model; conditions: both partners purified
T1 construct: PRMT2, human, UniProt P55345-1 as printed; cloned in pET28a(+); also called WT PRMT2; native PRMT2; source: E. coli Arctic Express (DE3), purified (Ni-NTA, Superdex 200 SEC)
T1 sequence (looked up): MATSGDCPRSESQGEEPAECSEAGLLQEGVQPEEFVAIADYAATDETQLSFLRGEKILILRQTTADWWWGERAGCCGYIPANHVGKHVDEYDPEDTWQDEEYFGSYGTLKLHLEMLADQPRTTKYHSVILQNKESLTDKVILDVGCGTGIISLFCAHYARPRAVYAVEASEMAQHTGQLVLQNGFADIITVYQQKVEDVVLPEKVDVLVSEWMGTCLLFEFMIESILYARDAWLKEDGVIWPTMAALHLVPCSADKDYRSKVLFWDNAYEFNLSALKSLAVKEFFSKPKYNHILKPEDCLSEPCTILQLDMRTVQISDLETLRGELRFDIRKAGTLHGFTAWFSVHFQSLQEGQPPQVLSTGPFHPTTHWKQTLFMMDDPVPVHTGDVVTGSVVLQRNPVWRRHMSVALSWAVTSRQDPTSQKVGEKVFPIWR

Chain of Protein arginine N-methyltransferase 1 (PRMT1) (human) (Q99873 other isoform, or with tags, fused parts or gaps): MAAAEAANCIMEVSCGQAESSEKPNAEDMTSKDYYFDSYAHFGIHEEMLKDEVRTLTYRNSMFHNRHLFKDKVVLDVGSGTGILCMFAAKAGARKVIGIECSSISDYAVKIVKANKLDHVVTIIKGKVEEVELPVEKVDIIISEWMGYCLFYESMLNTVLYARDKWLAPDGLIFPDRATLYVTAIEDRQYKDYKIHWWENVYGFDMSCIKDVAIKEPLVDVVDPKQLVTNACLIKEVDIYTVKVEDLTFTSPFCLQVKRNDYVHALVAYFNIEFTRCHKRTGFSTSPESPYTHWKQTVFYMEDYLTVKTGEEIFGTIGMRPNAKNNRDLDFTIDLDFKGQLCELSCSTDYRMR

methylation signal of histone H2A at 50 ug/ml calf thymus histones, PRMT1 100 nM with 10-fold excess of PRMT2, densitometry of phosphor images [1]: 3 fold
B1: Protein arginine N-methyltransferase 2 (PRMT2), full-length, wild type (enzyme)
chain: T1 sequence (looked up)

B2: mCit-PRMT2 (mCitrine fusion of PRMT2) (enzyme, human, UniProt P55345-1 1-433, looked up)
chain: T1 sequence (looked up)
notes: PRMT2, human, UniProt P55345-1 printed for PRMT2 in the same sentence; cloned in pET28a(+); also called mCitrine-PRMT2; source: E. coli Arctic Express (DE3), purified (Ni-NTA, Superdex 200 SEC)
binding result [2]: binds

B3: Histone H4 peptide (Ac-SGRGKGGKGLGKGGAKR) (peptide)
peptide: SGRGKGGKGLGKGGAKR
modifications: N-terminal acetylation
notes: N-terminal tail of histone H4; source: synthetic peptide, bought: Canada Peptide
ΔTm at 500 μM peptide [3]: 5.87 °C
